Experimental data: patent US9618524B2, “Method, composition, isolation and identification of a plaque particle and related biomarker” (Plaxgen Inc., priority 2012, dated 2017)

B1: Beta-2-glycoprotein 1 (protein)
chain: GRTCPKPDDLPFSTVVPLKTFYEPGEEITYSCKPGYVSRGGMRKFICPLTGLWPINTLKCTPRVCPFAGILENGAVRYTTFEYPNTISFSCNTGFYLNGADSAKCTEEGKWSPELPVCAPIICPPPSIPTFATLRVYKPSAGNNSLYRDTAVFECLPQHAMFGNDTITCTTHGNWTKLPECREVKCPFPSRPDNGFVNYPAKPTLYYKDKATFGCHDGYSLDGPEEIECTKLGNWSAMPSCKASCKVPVKKATVVYQGERVKIQEKFKNGMLHGDKVSFFCKNKEKKCSYTEDAQCIDGTIEVPKCFKEHSSLAFWKTDASDVKPC
B2: Histidine-rich glycoprotein (protein)
chain: VSPTDCSAVEPEAEKALDLINKRRRDGYLFQLLRIADAHLDRVENTTVYYLVLDVQESDCSVLSRKYWNDCEPPDSRRPSEIVIGQCKVIATRHSHESQDLRVIDFNCTTSSVSSALANTKDSPVLIDFFEDTERYRKQANKALEKYKEENDDFASFRVDRIERVARVRGGEGTGYFVDFSVRNCPRHHFPRHPNVFGFCRADLFYDVEALDLESPKNLVINCEVFDPQEHENINGVPPHLGHPFHWGGHERSSTTKPPFKPHGSRDHHHPHKPHEHGPPPPPDERDHSHGPPLPQGPPPLLPMSCSSCQHATFGTNGAQRHSHNNNSSDLHPHKHHSHEQHPHGHHPHAHHPHEHDTHRQHPHGHHPHGHHPHGHHPHGHHPHGHHPHCHDFQDYGPCDPPPHNQGHCCHGHGPPPGHLRRRGPGKGPRPFHCRQIGSVYRLPPLRKGEVLPLPEANFPSFPLPHHKHPLKPDNQPFPQSVSESCPGKFKSGFPQVSMFFTHTFPK
B3: Apolipoprotein A-IV (protein)
chain: EVSADQVATVMWDYFSQLSNNAKEAVEHLQKSELTQQLNALFQDKLGEVNTYAGDLQKKLVPFATELHERLAKDSEKLKEEIGKELEELRARLLPHANEVSQKIGDNLRELQQRLEPYADQLRTQVSTQAEQLRRQLTPYAQRMERVLRENADSLQASLRPHADELKAKIDQNVEELKGRLTPYADEFKVKIDQTVEELRRSLAPYAQDTQEKLNHQLEGLTFQMKKNAEELKARISASAEELRQRLAPLAEDVRGNLRGNTEGLQKSLAELGGHLDQQVEEFRRRVEPYGENFNKALVQQMEQLRQKLGPHAGDVEGHLSFLEKDLRDKVNSFFSTFKEKESQDKTLSLPELEQQQEQQQEQQQEQVQMLAPLES
B4: Inter-alpha-trypsin inhibitor heavy chain H1 (protein)
chain: SKSSEKRQAVDTAVDGVFIRSLKVNCKVTSRFAHYVVTSQVVNTANEAREVAFDLEIPKTAFISDFAVTADGNAFIGDIKDKVTAWKQYRKAAISGENAGLVRASGRTMEQFTIHLTVNPQSKVTFQLTYEEVLKRNHMQYEIVIKVKPKQLVHHFEIDVDIFEPQGISKLDAQASFLPKELAAQTIKKSFSGKKGHVLFRPTVSQQQSCPTCSTSLLNGHFKVTYDVSRDKICDLLVANNHFAHFFAPQNLTNMNKNVVFVIDISGSMRGQKVKQTKEALLKILGDMQPGDYFDLVLFGTRVQSWKGSLVQASEANLQAAQDFVRGFSLDEATNLNGGLLRGIEILNQVQESLPELSNHASILIMLTDGDPTEGVTDRSQILKNVRNAIRGRFPLYNLGFGHNVDFNFLEVMSMENNGRAQRIYEDHDATQQLQGFYSQVAKPLLVDVDLQYPQDAVLALTQNHHKQYYEGSEIVVAGRIADNKQSSFKADVQAHGEGQEFSITCLVDEEEMKKLLRERGHMLENHVERLWAYLTIQELLAKRMKVDREERANLSSQALQMSLDYGFVTPLTSMSIRGMADQDGLKPTIDKPSEDSPPLEMLGPRRTFVLSALQPSPTHSSSNTQRLPDRVTGVDTD
B5: Afamin (protein)
chain: LPTQPRDIENFNSTQKFIEDNIEYITIIAFAQYVQEATFEEMEKLVKDMVEYKDRCMADKTLPECSKLPNNVLQEKICAMEGLPQKHNFSHCCSKVDAQRRLCFFYNKKSDVGFLPPFPTLDPEEKCQAYESNRESLLNHFLYEVARRNPFVFAPTLLTVAVHFEEVAKSCCEEQNKVNCLQTRAIPVTQYLKAFSSYQKHVCGALLKFGTKVVHFIYIAILSQKFPKIEFKELISLVEDVSSNYDGCCEGDVVQCIRDTSKVMNHICSKQDSISSKIKECCEKKIPERGQCIINSNKDDRPKDLSLREGKFTDSENVCQERDADPDTFFAKFTFEYSRRHPDLSIPELLRIVQIYKDLLRNCCNTENPPGCYRYAEDKFNETTEKSLKMVQQECKHFQNLGKDGLKYHYLIRLTKIAPQLSTEELVSLGEKMVTAFTTCCTLSEEFACVDNLADLVFGELCGVNENRTINPAVDHCCKTNFAFRRPCFESLKADKTYVPPPFSQDLFTFHADMCQSQNEELQRKTDRFLVNLVKLKHELTDEELQSLFTNFANVVDKCCKAESPEVCFNEESPKIGN
B6: Alpha-2-HS-glycoprotein (protein)
chain 1: APHGPGLIYRQPNCDDPETEEAALVAIDYINQNLPWGYKHTLNQIDEVKVWPQQPSGELFEIEIDTLETTCHVLDPTPVARCSVRQLKEHAVEGDCDFQLLKLDGKFSVVYAKCDSSPDSAEDVRKVCQDCPLLAPLNDTRVVHAAKAALAAFNAQNNGSNFQLEEISRAQLVPLPPSTYVEFTVSGTDCVAKEATEAAKCNLLAEKQYGFCKATLSEKLGGAEVAVTCMVFQTQPVSSQPQPEGANEAVPTPVVDPDAPPSPPLGAPGLPPAGSPPDSHVL
chain 2: TVVQPSVGAAAGPVVPPCPGRIRHFKV

Key:
Test in all cases: Mass spectroscopy proteomics, semi-quantitative binding affinity of serum proteins (plaqueproteome, Table 2)
Settings in all cases: higher number = stronger affinity
[1] = biological target: T1, Abeta-42 plaque particles (Homo sapiens, UniProt P05067)
T1 construct: Abeta 1-42
In short: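 AD patient serum or plasma (50% in PBS) was incubated with Abeta-42 aggregates (30 μg) for 1 h at 37 °C, then stained with Thioflavin S for 30 min. Labeled particles were FACS-sorted, trypsin/Lys-C digested overnight and analyzed by MS/MS. Sequest searched human UniProt; Scaffold/Protein Prophet validated the identifications.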

[2] = tested on: High Density cholesterol (Chl Large) plaque particles; parameters: species or system human
In short: (§1)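 Read-out is MS/MS protein identification (Sequest, strict trypsin, 20 ppm parent tolerance; Scaffold probabilities) of serum proteins bound to flow-sorted cholesterol plaque particles. These particles formed when 50% atherosclerotic serum was incubated with 30 μg cholesterol aggregates for 1 hr at 37° C.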

[3] = tested on: Low density cholesterol (Chl small) plaque particles; parameters: species or system human
In short: as §1

[4] = biological target: T2, alpha-synuclein plaque particles (Homo sapiens, UniProt P37840)
T2 construct: 140 amino acids polypeptide
In short: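 AD-subject plasma or serum (800 μL of 50%) mixed with 30 μg preformed alpha-synuclein aggregates for 1 h at 37 °C; Thioflavin S-positive particles isolated by flow sorting. After reduction, acrylamide alkylation and overnight tryptic digestion, serum proteins identified by MS/MS with Sequest and Scaffold.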

Tau plaque particles = tested on: Tau plaque particles; parameters: species or system human
In short: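 Serum or plasma proteins captured on Thioflavin S-labelled Tau plaque particles (Tau-74, Tau-275 oligomers preformed in PBS at 37° C for 2 h; 1 h co-incubation at 37° C) were isolated by FACS sorting, then tryptically digested and identified by MS/MS (Sequest, human UniProt, strict trypsin).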

| Molecule | Semi-quantitative analysis of proteins binding to different plaque particles: Abeta-42 [1] | Semi-quantitative analysis of proteins binding to different plaque particles: Chl Large [2] | Semi-quantitative analysis of proteins binding to different plaque particles: Chl small [3] | Semi-quantitative analysis of proteins binding to different plaque particles: Synuclein [4] | Semi-quantitative analysis of proteins binding to different plaque particles: Tau (Tau plaque particles) |
| --- | --- | --- | --- | --- | --- |
| B1 | 4 | 6 | 6 | 7 | 5 |
| B2 | 7 | 10 | 9 | 9 | 12 |
| B3 | 5 | 8 | 9 | 7 | 10 |
| B4 | 7 | 11 | 7 | 10 | 18 |
| B5 | 2 | 6 | 6 | 6 | 3 |
| B6 | 2 | 9 | 11 | 10 | 10 |
